From patent publication US20060121042A1 (AstraZeneca / MedImmune, published 2006)

How the values were obtained:
r murine EphA8 = target: T1, r murine EphA8 (mouse, UniProt O09127); test: Activity ELISA, receptor coated on the plate, purified IgG, anti-human kappa-HRP, OD 450 nm
T1 construct: recombinant soluble protein coated on the plate; also called mEphA8; rEphA8
T1 sequence (receptor construct, looked up): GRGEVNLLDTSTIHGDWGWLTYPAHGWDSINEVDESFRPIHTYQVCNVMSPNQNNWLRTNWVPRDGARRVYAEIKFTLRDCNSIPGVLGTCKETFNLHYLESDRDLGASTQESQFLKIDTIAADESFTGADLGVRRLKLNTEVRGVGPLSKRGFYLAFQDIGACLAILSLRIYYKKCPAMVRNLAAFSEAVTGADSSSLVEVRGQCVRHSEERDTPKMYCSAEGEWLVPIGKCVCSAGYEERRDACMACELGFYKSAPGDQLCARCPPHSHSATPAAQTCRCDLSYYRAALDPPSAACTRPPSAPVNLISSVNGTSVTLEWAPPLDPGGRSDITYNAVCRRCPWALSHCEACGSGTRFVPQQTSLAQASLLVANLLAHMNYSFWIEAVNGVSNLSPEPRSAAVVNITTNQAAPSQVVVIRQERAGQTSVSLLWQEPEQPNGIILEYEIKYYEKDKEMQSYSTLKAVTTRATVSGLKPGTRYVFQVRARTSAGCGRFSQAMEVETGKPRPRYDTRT
Protocol: (§1) Secondary screening of IgG constructs of affinity optimized combinatorial variants with additional EphA receptors: With purified IgG constructs of the nine combinatorial variants, additional secondary screening assays were performed using the Activity ELISA (see above) and recombinant EphA receptor proteins. More precisely, Nunc Maxisorp plates were coated with the following rEphA proteins: rhuEphAl-Fc; 0.5 μg/well, rmuEphA2-Fc; 0.5 μg/well, rmuEphA3-Fc: 0.1 μg/well, rmuEphA4-Fc; 0.1 μg/well, rratEphA5-Fc; 0.5 μg/well, rmuEphA6-Fc; 0.5 μg/well, rmuEphA7-Fc; 0.1 μg/well, rEphA8; 0.2 μg/well (all R&D Systems), rhuEphA2-Fc; 0.5 μg/well, and rhuEphA4-His; 0.1 μg/well (both produced at MedImmune, Inc.). Plates were blocked with 3% BSA+0.1% Tween20 for 2 h. […] Incubation with a goat anti-human kappa horseradish peroxydase (HRP) conjugate then followed. HRP activity was detected with TMB substrate and the reaction quenched with 0.2 M H₂SO₄. Plates were read at 450 nm. Data was analyzed by normalizing Fab concentrations to the corresponding activity data (see FIGS. 12A-12J and 14).

[1] = target: T2, Human EphA4-Fc fusion protein (human, UniProt P54764 20-547); test: BIAcore, IgG immobilized on the sensor chip, EphA4-Fc as analyte; comment on the sheet: off-rate below LOD
T2 construct: not shown: Fc portion of a human IgG1
T2 sequence (P54764 20-547): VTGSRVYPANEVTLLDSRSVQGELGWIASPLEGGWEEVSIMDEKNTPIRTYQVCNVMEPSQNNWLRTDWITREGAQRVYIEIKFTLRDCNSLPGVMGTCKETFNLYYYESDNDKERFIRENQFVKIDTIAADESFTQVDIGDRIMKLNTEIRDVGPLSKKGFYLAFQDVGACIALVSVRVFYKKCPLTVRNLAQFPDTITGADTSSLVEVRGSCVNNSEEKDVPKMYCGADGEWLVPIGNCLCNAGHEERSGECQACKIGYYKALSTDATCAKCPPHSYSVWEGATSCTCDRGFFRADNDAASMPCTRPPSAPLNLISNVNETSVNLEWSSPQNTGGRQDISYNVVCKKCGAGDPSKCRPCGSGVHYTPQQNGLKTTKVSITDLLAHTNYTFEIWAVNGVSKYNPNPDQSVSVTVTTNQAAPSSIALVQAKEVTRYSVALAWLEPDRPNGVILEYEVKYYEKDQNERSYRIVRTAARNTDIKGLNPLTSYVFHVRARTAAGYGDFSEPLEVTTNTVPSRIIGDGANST
Protocol: FIG. 15A-15B. […] Binding affinities were measured using the BIAcore assay. […] Variant kinetic measurements for human EphA4 and were obtained using BIAcore with immobilized variant antibodies and human EphA4-Fc and EphA4-His as analytes.

r murine EphA7 = target: T3, r murine EphA7 (mouse, UniProt Q61772); test: activity ELISA, IgG on coated antigen
T3 construct: recombinant Fc fusion (R&D Systems); also called rmuEphA7-Fc; mEphA7
T3 sequence (receptor-Fc fusion, looked up): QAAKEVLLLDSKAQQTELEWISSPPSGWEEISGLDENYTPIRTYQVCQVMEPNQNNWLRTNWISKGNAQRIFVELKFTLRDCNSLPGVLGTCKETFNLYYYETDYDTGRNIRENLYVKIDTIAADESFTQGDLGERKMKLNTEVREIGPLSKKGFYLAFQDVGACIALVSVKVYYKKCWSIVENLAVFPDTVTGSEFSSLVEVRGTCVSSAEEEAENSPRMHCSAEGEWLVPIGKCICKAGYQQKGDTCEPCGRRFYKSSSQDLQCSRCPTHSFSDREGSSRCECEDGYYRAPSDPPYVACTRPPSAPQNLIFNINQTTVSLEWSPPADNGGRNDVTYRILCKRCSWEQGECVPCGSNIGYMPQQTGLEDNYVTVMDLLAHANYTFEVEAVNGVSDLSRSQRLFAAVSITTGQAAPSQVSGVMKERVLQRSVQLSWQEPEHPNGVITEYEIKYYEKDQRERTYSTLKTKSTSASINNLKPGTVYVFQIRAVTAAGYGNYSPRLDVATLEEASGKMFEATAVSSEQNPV

r murine EphA4 = target: T4, r murine EphA4 (mouse, UniProt Q03137); test: activity ELISA, IgG on coated antigen
T4 construct: recombinant Fc fusion (R&D Systems); also called rmuEphA4-Fc; mEphA4
T4 sequence (Q03137 20-547 limits assumed): as the sequence (P54764 20-547) above, with P59A, N121S, V124G, R250Q, S251N, T270S, K378R, N406S counted along it

mEphA7 = target: T5, mEphA7 (mouse, UniProt Q61772); test: ELISA, receptor coated on the plate, purified IgG, anti-human kappa-HRP
T5 construct: part of an Fc fusion; also called rmuEphA7-Fc
T5 sequence (receptor-Fc fusion, looked up): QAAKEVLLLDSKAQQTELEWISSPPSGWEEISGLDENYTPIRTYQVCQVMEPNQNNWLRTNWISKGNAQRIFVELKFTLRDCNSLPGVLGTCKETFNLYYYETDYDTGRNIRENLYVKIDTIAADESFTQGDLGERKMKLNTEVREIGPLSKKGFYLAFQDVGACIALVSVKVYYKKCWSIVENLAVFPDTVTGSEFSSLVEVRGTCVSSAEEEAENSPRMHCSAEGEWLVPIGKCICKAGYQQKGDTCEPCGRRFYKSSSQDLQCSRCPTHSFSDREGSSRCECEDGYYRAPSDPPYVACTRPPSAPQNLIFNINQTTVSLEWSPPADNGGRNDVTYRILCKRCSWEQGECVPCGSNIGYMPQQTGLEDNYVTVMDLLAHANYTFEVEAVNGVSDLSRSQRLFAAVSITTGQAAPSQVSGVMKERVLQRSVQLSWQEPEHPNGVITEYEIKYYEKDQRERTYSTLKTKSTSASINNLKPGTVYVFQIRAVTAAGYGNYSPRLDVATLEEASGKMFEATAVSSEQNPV

mEphA4 = target: T6, mEphA4 (mouse, UniProt Q03137); test: as above
T6 construct: part of an Fc fusion; also called rmuEphA4-Fc
T6 sequence (Q03137 20-547 limits assumed): as the sequence (P54764 20-547) above, with P59A, N121S, V124G, R250Q, S251N, T270S, K378R, N406S counted along it

r rat EphA5 = target: T7, r rat EphA5 (rat, UniProt P54757); test: Activity ELISA, receptor coated on the plate, purified IgG, anti-human kappa-HRP
T7 construct: part of an Fc fusion; also called rEphA5; rratEphA5-Fc
T7 sequence (P54757 27-575 limits assumed): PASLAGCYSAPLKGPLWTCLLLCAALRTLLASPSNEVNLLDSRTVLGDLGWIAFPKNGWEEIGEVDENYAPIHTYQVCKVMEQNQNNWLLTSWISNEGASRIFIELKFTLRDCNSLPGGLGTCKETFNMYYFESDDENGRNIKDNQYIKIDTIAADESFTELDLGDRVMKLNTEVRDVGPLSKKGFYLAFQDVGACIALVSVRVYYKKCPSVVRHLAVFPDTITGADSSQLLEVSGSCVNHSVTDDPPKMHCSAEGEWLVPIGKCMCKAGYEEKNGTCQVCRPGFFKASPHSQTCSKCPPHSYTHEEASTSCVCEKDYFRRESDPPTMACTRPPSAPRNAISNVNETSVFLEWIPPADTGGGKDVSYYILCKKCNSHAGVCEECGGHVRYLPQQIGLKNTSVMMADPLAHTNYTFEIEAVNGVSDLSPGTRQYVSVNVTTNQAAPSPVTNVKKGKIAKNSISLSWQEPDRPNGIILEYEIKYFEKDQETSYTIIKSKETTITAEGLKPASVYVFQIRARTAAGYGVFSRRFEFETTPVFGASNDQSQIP
Protocol: as §1

B1: 3A12 IgG1 (affinity optimized combinatorial variant of mAb GEA44 in human IgG1 format) (antibody, V domains shown)
VH: QVQLLQSGAEVKKPGASVKVPCKASGYTFTSRAMSWVRQAPGQGLEWMGWINTNTGNPTYAQGFTGRFVFSLDTSVSTAYLQISSLKAEDTAVYYCARVRFTVYGDGMDVWGQGTLVTVSS
VL: EIVLTQSPATLSVSPGERATLSCRASQSVSSNLAWYQQKPGQAPRLLIYGASTWATGIPDRFSASGSGTDFTLTISRVEPEDFAVYYCQQYGPSWTFGQGTKVEIK
**Q.** Which results are given for B1?
**A.** binding result (r murine EphA8): binds; Kd [1]: 6 pM; koff [1]: 8.66e-07 s⁻¹; kon [1]: 147000 M⁻¹ s⁻¹; binding result (r murine EphA7): binds; binding result (r murine EphA4): binds; binding result (mEphA7): binds; binding result (mEphA4): binds; binding result (r rat EphA5): binds
